Experimental data: article PMC5558965, “Cysteine-rich protein 2 accelerates actin filament cluster formation” (PLoS ONE, 2017)

Target: Actin protein (from Bovine skeletal muscle), polymerised to F-actin (bovine, UniProt P68138 1-377)
Experiment: cell-based or functional assay

SAXS decreasing ratio d (0.01 < Q < 0.016) of F-actin; F-actin:CRP2 ratio 1:0 to 1:4.6 (d 1.4 to 3.4): 3.4
B1: Cysteine-rich protein 2 (CRP2), recombinant mouse, full length, with (His)6 tag at the C-terminus (natural protein)
chain: MPVWGGGNKCGACGRTVYHAEEVQCDGRSFHRCCFLCMVCRKNLDSTTVAIHDEEIYCKSCYGKKYGPKGYGYGQGAGTLNMDRGERLGIKPESAQPHRPTTNPNTSKFAQKYGGAEKCSRCGDSVYAAEKIIGAGKPWHKNCFRCAKCGKSLESTTLTEKEGEIYCKGCYAKNFGPKGFGYGQGAGALVHAQ
